In patent US20260092115A1 (Chugai, published 2026):

Columns and labels:
[1] = target: T1, human FcγRIa extracellular domain, His-tagged (human, UniProt P12314 16-292); test: KD of 04H1637-G1m/04L1610-lam1 divided by KD of this antibody; SPR pH 7.4
T1 construct: also called hFcγR Ia
Protocol: (§1) The interaction between the generated antibodies and human FcγRs was analyzed by the following method using Biacore T200. 50 mM Na-Phosphate, 150 mM NaCl, 0.05% Tween20 (pH 7.4) was used as the running buffer, and the assay was performed at 25° C. For the sensor chips, Series S SA (GE Healthcare) chips onto which CaptureSelect Human Fab-lambda Kinetics Biotin Conjugate (Thermo Fisher Scientific) was immobilized were used. The antibodies of interest were captured onto these chips and each FcγR diluted in the running buffer was allowed to interact with them. Chips were regenerated with 10 mM Glycine-HCl (pH 1.5) and 25 mM NaOH, and assay was performed by repeatedly capturing antibodies. The dissociation constants KD (mol/L) for FcγRs of each antibody were calculated using Biacore T200 Evaluation Software 2.0, using the 1:1 Langmuir binding model for FcγRIa and FcγRIIIa and the steady state affinity model for FcγRIIa. For FcγRIIb, the binding amount of FcγRIIb per unit amount of antibody was calculated by correcting the binding amount of FcγRIIb obtained from the sensorgram obtained by the measurement with the amount of antibody captured onto the chip surface.
(§2) “Relative value to KD between G1m and hFcRn” and “Relative value to KD between G1m and hFcγRs” are values obtained by dividing the KD value of 04H1637-G1m/04L1610-lam1 for hFcRn and for each FcγR by the KD value of each variant, respectively. “Relative binding amount” indicates the value obtained by dividing the binding amount of each variant to FcγRIIb by the binding amount of 04H1637-G1m/04L1610-lam1. […] It was shown that all of the generated heterodimerized antibodies had enhanced binding to FcγRIIa and FcγRIIIa as compared with 04H1637-G1m/04L1610-lam1 which has the constant region of native human IgG1.

[2] = target: T2, human FcγRIIIa, allotype F158, extracellular domain, His-tagged (human, UniProt P08637 17-208); test: as above
T2 construct: extracellular domain; also called hFcγR IIIa F
Protocol: as §1, §2

[3] = target: T3, human FcγRIIIa, allotype V158, extracellular domain, His-tagged (human, UniProt P08637 17-208); test: as above
T3 construct: extracellular domain; also called hFcγR IIIa V
Protocol: as §1, §2

[4] = target: T4, human FcγRIIa, type H, extracellular domain, His-tagged (human, UniProt P12318 34-217); test: as above
T4 construct: extracellular domain; also called hFcγR IIa H
T4 sequence (looked up): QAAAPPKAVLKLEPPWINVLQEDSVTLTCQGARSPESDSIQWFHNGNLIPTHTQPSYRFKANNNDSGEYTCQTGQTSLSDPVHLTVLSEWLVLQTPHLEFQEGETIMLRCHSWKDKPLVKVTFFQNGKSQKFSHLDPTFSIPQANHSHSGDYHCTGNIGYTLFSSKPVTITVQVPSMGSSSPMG
Protocol: as §1, §2

[5] = target: T5, human FcγRIIa, type R, extracellular domain, His-tagged (human, UniProt P12318 34-217); test: as above
T5 construct: extracellular domain; also called hFcγR IIa R
T5 sequence (looked up): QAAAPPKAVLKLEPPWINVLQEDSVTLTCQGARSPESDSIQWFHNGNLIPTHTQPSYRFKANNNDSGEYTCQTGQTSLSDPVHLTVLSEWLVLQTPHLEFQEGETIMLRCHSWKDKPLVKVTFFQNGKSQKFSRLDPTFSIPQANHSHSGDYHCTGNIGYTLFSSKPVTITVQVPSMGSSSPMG
Protocol: as §1, §2

[6] = target: T6, human FcγRIIb extracellular domain, His-tagged (human, UniProt P31994 43-217); test: SPR Biacore T200, 25C, pH 7.4; FcγRIIb at 1000 nM, corrected by captured antibody
T6 construct: extracellular domain; also called hFcγR IIb
T6 sequence (looked up): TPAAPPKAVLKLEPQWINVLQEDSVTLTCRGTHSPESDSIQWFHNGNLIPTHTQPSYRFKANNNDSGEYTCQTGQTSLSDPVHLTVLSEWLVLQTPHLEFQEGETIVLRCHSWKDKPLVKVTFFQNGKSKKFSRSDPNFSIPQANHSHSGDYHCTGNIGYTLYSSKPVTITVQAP
Protocol: as §1

[7] = target: T6, human FcγRIIb extracellular domain, …; test: binding amount of this antibody divided by that of 04H1637-G1m/04L1610-lam1; SPR pH 7.4
Protocol: as §1, §2

T3 sequence (P08637 17-208 F176V): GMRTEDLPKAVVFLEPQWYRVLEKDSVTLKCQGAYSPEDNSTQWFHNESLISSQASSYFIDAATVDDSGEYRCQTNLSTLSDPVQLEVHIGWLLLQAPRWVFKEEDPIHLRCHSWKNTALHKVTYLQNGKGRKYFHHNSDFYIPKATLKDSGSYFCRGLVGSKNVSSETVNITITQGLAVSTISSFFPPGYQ
T2 sequence (P08637 17-208): as the sequence (P08637 17-208 F176V) above, with V160F counted along it
T1 sequence (P12314 16-292): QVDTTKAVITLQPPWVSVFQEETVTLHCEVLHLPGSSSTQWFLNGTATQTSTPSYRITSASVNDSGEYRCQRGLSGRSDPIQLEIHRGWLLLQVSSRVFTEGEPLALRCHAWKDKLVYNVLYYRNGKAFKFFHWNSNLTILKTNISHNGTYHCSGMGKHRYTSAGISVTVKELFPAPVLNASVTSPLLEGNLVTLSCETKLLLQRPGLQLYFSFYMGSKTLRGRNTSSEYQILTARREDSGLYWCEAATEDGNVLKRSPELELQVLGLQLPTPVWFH

B1: 04H1637-Kn462/04L1610-lam1//04H1637-H1441/04L1610-lam1 (antibody, human IgG1, lambda)
heavy 1: QVQLVESGGGLVKPGGSLRLSCAASGFTFSSKTMNWVRQAPGKGLEWVSSISTQSHYIYYAESVRGRFTISRDNAKNSLYLQMNSLRAEDTAVYYCARYGKREDMLWVFDYWGQGTLVTVSSASTKGPSVFPLAPSSKSTSGGTAALGCLVKDYFPEPVTVSWNSGALTSGVHTFPAVLQSSGLYSLSSVVTVPSSSLGTQTYICNVNHKPSNTKVDKKVEPKSCDKTHTCPPCPAPEFQWGPMVFLFPPKPKDVLMISRTPEVTCVVVDVSDEEPEVKFNWYVDGVEVHNAKTKPREEQYNATYRVVSVLPVLHQDWLNGKEYKCKVSNDALPAPIEKTISKAKGQPREPQVCTLPPSRDELTKNQVSLWCLVKGFYPSDIAVEWESNGQPENNYKTTPPVLDSDGSFFLYSKLTVDKSRWQQGNVFSCSVMHEALHNHYTQKSLSLSP
heavy 2: QVQLVESGGGLVKPGGSLRLSCAASGFTFSSKTMNWVRQAPGKGLEWVSSISTQSHYIYYAESVRGRFTISRDNAKNSLYLQMNSLRAEDTAVYYCARYGKREDMLWVFDYWGQGTLVTVSSASTKGPSVFPLAPSSKSTSGGTAALGCLVKDYFPEPVTVSWNSGALTSGVHTFPAVLQSSGLYSLSSVVTVPSSSLGTQTYICNVNHKPSNTKVDKKVEPKSCDKTHTCPPCPAPELLAGPSVFLFPPKPKDVLMISRTPEVTCVVVDVSHEEPEVKFNWYVDGVEVHNAKTKPREEQYNATYRVVSVLPVLHQDWLNGKEYKCKVSNDALPAPIEETISKAKGQPREPQVYTLPPSRCELTKNQVSLSCAVKGFYPSDIAVEWESNGQPENNYKTTPPVLDSDGSFFLVSKLTVDKSRWQQGNVFSCSVMHEALHNHYTQKSLSLSP
light: QSALTQPPSASGSPGQSVTISCEGPSTGVGDYNWVHWYQQHPGKAPKLMIYFTSKKPSGVPDRFSGSKSGNTASLTVSGLQAEDEADYYCQTYAAPLGPMFGGGTKLTVLGQPKAAPSVTLFPPSSEELQANKATLVCLISDFYPGAVTVAWKADSSPVKAGVETTTPSKQSNNKYAASSYLSLTPEQWKSHRSYSCQVTHEGSTVEKTVAPTECS
notes: Heterodimerized IgG1 Fc variant; also called 04H1637-Kn462/04L1610-lam1//04H1637-Hl441/04L1610-lam1
Relative value to KD between G1m and hFcγRs [1]: 0.3 ratio
Relative value to KD between G1m and hFcγRs [2]: 79.5 ratio
Relative value to KD between G1m and hFcγRs [3]: 45.8 ratio
Relative value to KD between G1m and hFcγRs [4]: 20.9 ratio
Relative value to KD between G1m and hFcγRs [5]: 9.2 ratio
Binding amount [6]: 0.013 RU per RU of captured antibody
Relative binding amount [7]: 1.6 ratio

B2: 04H1637-Kn125/04L1610-lam1//04H1637-H1076/04L1610-lam1 (antibody, human IgG1, lambda)
heavy 1: QVQLVESGGGLVKPGGSLRLSCAASGFTFSSKTMNWVRQAPGKGLEWVSSISTQSHYIYYAESVRGRFTISRDNAKNSLYLQMNSLRAEDTAVYYCARYGKREDMLWVFDYWGQGTLVTVSSASTKGPSVFPLAPSSKSTSGGTAALGCLVKDYFPEPVTVSWNSGALTSGVHTFPAVLQSSGLYSLSSVVTVPSSSLGTQTYICNVNHKPSNTKVDKKVEPKSCDKTHTCPPCPAPEYQWGPMVFLFPPKPKDTLMISRTPEVTCVVVDVSDEEPEVKFNWYVDGVEVHNAKTKPREEQYNATYRVVSVLTVLHQDWLNGKEYKCKVSNKALPAPIEKTISKAKGQPREPQVCTLPPSRDELTKNQVSLWCLVKGFYPSDIAVEWESNGQPENNYKTTPPVLDSDGSFFLYSKLTVDKSRWQQGNVFSCSVMHEALHNHYTQKSLSLSP
heavy 2: QVQLVESGGGLVKPGGSLRLSCAASGFTFSSKTMNWVRQAPGKGLEWVSSISTQSHYIYYAESVRGRFTISRDNAKNSLYLQMNSLRAEDTAVYYCARYGKREDMLWVFDYWGQGTLVTVSSASTKGPSVFPLAPSSKSTSGGTAALGCLVKDYFPEPVTVSWNSGALTSGVHTFPAVLQSSGLYSLSSVVTVPSSSLGTQTYICNVNHKPSNTKVDKKVEPKSCDKTHTCPPCPAPELLGGPSVFLFPPKPKDTLMISRTPEVTCVVVDVSHEEPEVKFNWYVDGVEVHNAKTKPREEQYNSTYRVVSVLTVLHQDWLNGKEYKCKVSNDALPMPIEETISKAKGQPREPQVYTLPPSRCELTKNQVSLSCAVKGFYPSDIAVEWESNGQPENNYKTTPPVLDSDGSFFLVSKLTVDKSRWQQGNVFSCSVMHEALHNHYTQKSLSLSP
light: QSALTQPPSASGSPGQSVTISCEGPSTGVGDYNWVHWYQQHPGKAPKLMIYFTSKKPSGVPDRFSGSKSGNTASLTVSGLQAEDEADYYCQTYAAPLGPMFGGGTKLTVLGQPKAAPSVTLFPPSSEELQANKATLVCLISDFYPGAVTVAWKADSSPVKAGVETTTPSKQSNNKYAASSYLSLTPEQWKSHRSYSCQVTHEGSTVEKTVAPTECS
notes: Heterodimerized IgG1 with the Fc variant of WO 2013/002362; also called 04H1637-Kn125/04L1610-lam1//04H1637-Hl076/04L1610-lam1
Relative value to KD between G1m and hFcγRs [1]: 1.2 ratio
Relative value to KD between G1m and hFcγRs [2]: 406 ratio
Relative value to KD between G1m and hFcγRs [3]: 126 ratio
Relative value to KD between G1m and hFcγRs [4]: 3.6 ratio
Relative value to KD between G1m and hFcγRs [5]: 1.6 ratio
Binding amount [6]: 0.007 RU per RU of captured antibody
Relative binding amount [7]: 0.9 ratio

B3: 04H1637-Kn461/04L1610-lam1//04H1637-H1443/04L1610-lam1 (antibody, human IgG1, lambda)
heavy 1: QVQLVESGGGLVKPGGSLRLSCAASGFTFSSKTMNWVRQAPGKGLEWVSSISTQSHYIYYAESVRGRFTISRDNAKNSLYLQMNSLRAEDTAVYYCARYGKREDMLWVFDYWGQGTLVTVSSASTKGPSVFPLAPSSKSTSGGTAALGCLVKDYFPEPVTVSWNSGALTSGVHTFPAVLQSSGLYSLSSVVTVPSSSLGTQTYICNVNHKPSNTKVDKKVEPKSCDKTHTCPPCPAPEFQWGPMVFLFPPKPKDVLMISRTPEVTCVVVDVSDEEPEVKFNWYVDGVEVHNAKTKPREEQYNATYRVVSVLPVLHQDWLNGKEYKCKVSNDALPAPEEKTISKAKGQPREPQVCTLPPSRDELTKNQVSLWCLVKGFYPSDIAVEWESNGQPENNYKTTPPVLDSDGSFFLYSKLTVDKSRWQQGNVFSCSVMHEALHNHYTQKSLSLSP
heavy 2: QVQLVESGGGLVKPGGSLRLSCAASGFTFSSKTMNWVRQAPGKGLEWVSSISTQSHYIYYAESVRGRFTISRDNAKNSLYLQMNSLRAEDTAVYYCARYGKREDMLWVFDYWGQGTLVTVSSASTKGPSVFPLAPSSKSTSGGTAALGCLVKDYFPEPVTVSWNSGALTSGVHTFPAVLQSSGLYSLSSVVTVPSSSLGTQTYICNVNHKPSNTKVDKKVEPKSCDKTHTCPPCPAPELLAGPSVFLFPPKPKDVLMISRTPEVTCVVVDVSHEEPEVKFNWYVDGVEVHNAKTKPREEQYNATYRVVSVLPVLHQDWLNGKEYKCKVSNDALPAPEEETISKAKGQPREPQVYTLPPSRCELTKNQVSLSCAVKGFYPSDIAVEWESNGQPENNYKTTPPVLDSDGSFFLVSKLTVDKSRWQQGNVFSCSVMHEALHNHYTQKSLSLSP
light: QSALTQPPSASGSPGQSVTISCEGPSTGVGDYNWVHWYQQHPGKAPKLMIYFTSKKPSGVPDRFSGSKSGNTASLTVSGLQAEDEADYYCQTYAAPLGPMFGGGTKLTVLGQPKAAPSVTLFPPSSEELQANKATLVCLISDFYPGAVTVAWKADSSPVKAGVETTTPSKQSNNKYAASSYLSLTPEQWKSHRSYSCQVTHEGSTVEKTVAPTECS
notes: Heterodimerized IgG1 Fc variant; also called 04H1637-Kn461/04L1610-lam1//04H1637-Hl443/04L1610-lam1
Relative value to KD between G1m and hFcγRs [1]: 1.2 ratio
Relative value to KD between G1m and hFcγRs [2]: 616 ratio
Relative value to KD between G1m and hFcγRs [3]: 226 ratio
Relative value to KD between G1m and hFcγRs [4]: 11.1 ratio
Relative value to KD between G1m and hFcγRs [5]: 10.7 ratio
Binding amount [6]: 0.025 RU per RU of captured antibody
Relative binding amount [7]: 3.1 ratio
